This passage reports pKa results from paper PMC8154523.

As a reminder, the pKa is the negative logarithm of the acid dissociation constant.

Among the test systems are Asp32 (position 32, […]); Asp46 (position 46, […]); Asp77 (position 77, […]); Glu28 (position 28, […]); Glu43 (position 43, […]); Glu73 (position 73, […]).
Holding throughout (test): NMR
Conditions in all cases: 30 °C

Where [1] appears, read: 50 mM NaCl (plus 20 mM phosphate and 5 mM polyanionic sclx8), D-fructose-bound RSL in the presence of 5 mM sclx8 (binding has mM affinity and is pH dependent).
The mark [2] stands for this setting: 50 mM NaCl (plus 20 mM phosphate), D-fructose-bound RSL, no sclx8 (0 mM).

For “Ralstonia solanacearum lectin (RSL), fucose-binding lectin (Ralstonia solanacearum)”, the pKa in the data set on Asp32 (position 32, […]) (setting [1]) is given as 3.7±0.01; in the data set with Asp32 (position 32, […]) (setting [2]), 1.7±0.02; in the data set on Asp46 (position 46, […]) (setting [1]), 4.2±0.01; in the data set with Asp46 (position 46, […]) (setting [2]), 3.5±0.01; with Asp77 (position 77, […]) (setting [1]), less than 2.0; with Asp77 (position 77, […]) (setting [2]), less than 2.0. Further, the pKa in the data set on Glu28 (position 28, […]) (setting [1]) is given as less than 2.0; in the data set with Glu28 (position 28, […]) (setting [2]), less than 2.0; with Glu43 (position 43, […]) (setting [1]) it was 6.2±0.01; in the data set on Glu43 (position 43, […]) (setting [2]), 5.9±0.01; with Glu73 (position 73, […]) (setting [1]), less than 2.0; with Glu73 (position 73, […]) (setting [2]) it was less than 2.0.
